# T1: murine DLL3 (murine, UniProt O88516 33-592)
# T1 construct: whole, on cells; Expressed endogenously on the murine SCLC (mSCLC) cell line; also called mDLL3; mouse DLL3
# T1 sequence (looked up): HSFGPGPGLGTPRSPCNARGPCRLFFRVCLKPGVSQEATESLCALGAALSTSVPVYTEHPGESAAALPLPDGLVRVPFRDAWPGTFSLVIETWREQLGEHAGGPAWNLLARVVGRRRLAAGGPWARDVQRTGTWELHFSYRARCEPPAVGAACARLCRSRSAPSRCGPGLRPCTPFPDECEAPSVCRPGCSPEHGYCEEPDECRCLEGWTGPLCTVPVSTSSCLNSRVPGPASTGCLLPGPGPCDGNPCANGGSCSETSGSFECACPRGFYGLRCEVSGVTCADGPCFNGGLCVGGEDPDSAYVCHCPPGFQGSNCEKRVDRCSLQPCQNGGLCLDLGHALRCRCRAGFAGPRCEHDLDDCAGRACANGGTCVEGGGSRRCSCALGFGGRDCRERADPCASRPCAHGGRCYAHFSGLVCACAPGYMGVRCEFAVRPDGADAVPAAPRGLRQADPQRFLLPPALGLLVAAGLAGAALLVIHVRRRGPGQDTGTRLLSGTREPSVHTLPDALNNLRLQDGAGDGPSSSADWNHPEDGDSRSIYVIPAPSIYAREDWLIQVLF
# Molecular target: T1, murine DLL3
# Experiment: told in words; shown by lysis and IFN-γ release of CAR T cells in coculture with mSCLC cells that express murine DLL3
# Description: The CAR consists of the SC16.8 single-chain variable fragment (scFv) and murine CD28 and CD3ζ domains. FIG. 2B measures the IFN-γ levels in supernatant of 24-hour coculture of murine CAR T cells with or without mSCLC cells. **P<0.01, ****P<0.0001 (2-way ANOVA, n=2). FIG. 2C depicts the survival of mice with metastatic mSCLC that were treated with the indicated doses of SC16.8m28mz CAR T cells (day 7) with or without 50 mg/kg cyclophosphamide pretreatment (day 6). **P<0.01 (log-rank test, n=4-6). FIG. 2D is a schematic of CAR design with SC16.8 scFv, murine CD28 and CD3ζ signaling domains, and the murine 1112 fusion transgene or murine 1118 transgene. IRES, internal ribosome entry site. FIG. 2E illustrates IFN-γ production by the respective CAR T cells in the absence and presence of mSCLC cells. *P<0.05, **P<0.01, ***P<0.001, ****P<0.0001 (2-way ANOVA and Student's t test, n=2-3). FIG. 2F depicts a luciferase killing assay with SC16.8 CAR T cells that express IL-12, IL-18, or no cytokine and 4H11 CAR T cells as negative control (n=3). FIGS. 2G and 2H depict serum IFN-γ and TNF-α levels (n=12-15) (2G) and circulating CAR T cells (n=5) (2H) in the blood of mice collected 3 days after treatment with the indicated CAR T cells. **P<0.01, ***P<0.001, ****P<0.0001 (1-way ANOVA). […] FIG. 2J illustrates the survival of mice in FIG. 2I. *P<0.05, ****P<0.0001 (log-rank test). […]
binder,measurement,value
"SC16.8m28mz CAR (SC16.8 scFv with Flag-tag, murine CD28 transmembrane and intracellular domain and murine CD3zeta intracellular domain, on murine T cells) (scFv, V domains shown, Tested as a membrane CAR on transduced murine T cells; VH and VL are joined as an scFv; also called SC16.8 CAR (murine CAR T cells); the presently disclosed CAR) VH: QAQLQQSGAELVRPGTSVKVSCKASGYAFTNYLIEWVKQRPGQGLEWIGVINPGTGGTNYNENFKGKATLTADKSSSTAYMQLSSLTSDDSAVYFCARSPYDYHEGAMDYWGQGTSVTVSS VL: EIQMTQSPSSMSASLGDRITITCQATQDIVKNLNWYQQKPGKPPSFLIYYAIELAEGVPSRFSGSGSGSDYSLTISNLESEDFADYYCLQFYEFPFTFGAGTKLELK",binding result,binds
